Laboratory results from FireProtDB (doi:10.1021/bi801431x).
Values joined by “and” are separate entries in the source; they are usually repeats but may differ in a detail not shown here. Equal values may be shown once.

B1: Aspartate aminotransferase, P00509 (parent)
chain: MFENITAAPADPILGLADLFRADERPGKINLGIGVYKDETGKTPVLTSVKKAEQYLLENETTKNYLGIDGIPEFGRCTQELLFGKGSALINDKRARTAQTPGGTGALRVAADFLAKNTSVKRVWVSNPSWPNHKSVFNSAGLEVREYAYYDAENHTLDFDALINSLNEAQAGDVVLFHGCCHNPTGIDPTLEQWQTLAQLSVEKGWLPLFDFAYQGFARGLEEDAEGLRAFAAMHKELIVASSYSKNFGLYNERVGACTLVAADSETVDRAFSQMKAAIRANYSNPPAHGASVVATILSNDALRAIWEQELTDMRQRIQRMRQLFVNTLQEKGANRDFSFIIKQNGMFSFSGLTKEQVLRLREEFGVYAVASGRVNVAGMTPDNMAPLCEAIVAVL

Variants of: B1
Details: Escherichia coli (strain K12); pH 7.5; 25 °C; Urea; Fluorescence; Potassium phosphate 20 mM; reversible: Yes; structure 1AMQ; whole UniProt chain shown

MFENITAAPADPILGLADLFRADERPGKINLGIGVYKDETGKTPVLTSVKKAEQYLLENETTENYLGIDGIPEFGRCTQELLFGKGSALINDKRARTAQTPGGTGALRVAADFLAKNTSVKRVWVSNPSWPNHKSVFNSAGLEVREYAYYDAENHTLDFDALINSLNEAQAGDVVLFHGCCHNPTGIDPTLEQWQTLAQLSVEKGWLPLFDFAYQGFARGLEEDAEGLRAFAAMHKELIVASSYSKNFGLYNKRVGACTLVAADSETVDRAFSQMKAAIRANYSNPPAHGASVVATILSNDALRAIWEQELTDMRQRIQRMRQLFVNTLQEKGANRDFSFIIKQNGMFSFSGLTKEQVLRLREEFGVYAVASGRVNVAGMTPDNMAPLCEAIVAVL [K63E E253K]
ddG of mutation (higher = less stable): 6.7 kcal/mol and 6.5 kcal/mol

MFENITAAPADPILGLADLFRADERPGKINLGIGVYKDETGKTPVLTSVKKAEQYLLENETTKNYLGIDGIPEFGRCTQELLFGKGSALINDKRARTAQTPGGTGALRVAADFLAKNTSVKRVWVSNPSWPNHKSVFNSAGLEVREYAYYDAENHTLDFDALINSLNEAQAGDVVLFHGCCHNPTGIDPTLEQWQTLAQLSVEKGWLPLFDFAYQGFARGLEEDAEGLRAFAAMHKELIVASSYSKNFGLYNEKVGACTLVAADSETVDRAFSQMKAAIRANYSNPPAHGASVVATILSNDALRAIWEQELTDMRQRIQRMRQLFVNTLQEKGANRDFSFIIKQNGMFSFSGLTKEQVLRLREEFGVYAVASGRVNVAGMTPDNMAPLCEAIVAVL [R254K]
ddG of mutation (higher = less stable): 7.6 kcal/mol and 5 kcal/mol

MFENITAAPADPILGLADLFRADERPGKINLGIGVYKDETGKTPVLTSVKKAEQYLLENETTKNYLGIDGIPEFGRCTQELLFGKGSALINDKRARTAQTPGGTGALRVAADFLAKNTSVKRVWVSNPSWPNHKSVFNSAGLEVREYAYYDAENHTLDFDALINSLNEAQAGDVVLFHGCCHNPTGIDPTLEQWQTLAQLSVEKGWLPLFDFAYQGFARGLEEDAEGLRAFAAMHKELIVASSYSKNFGLYNQRVGACTLVAADSETVDRAFSQMKAAIRANYSNPPAHGASVVATILSNDALRAIWEQELTDMRQRIQRMRQLFVNTLQEKGANRDFSFIIKQNGMFSFSGLTKEQVLRLREEFGVYAVASGRVNVAGMTPDNMAPLCEAIVAVL [E253Q]
ddG of mutation (higher = less stable): 6.3 kcal/mol and 5.4 kcal/mol

MFENIAAAPADPILGLADLFRADERPGKINLGIGVYKDETGKTPVLTSVKKAEQYLLENETTKNYLGIDGIPEFGRCTQELLFGKGSALINDKRARTAQTPGGTGALRVAADFLAKNTSVKRVWVSNPSWPNHKSVFNSAGLEVREYAYYDAENHTLDFDALINSLNEAQAGDVVLFHGCCHNPTGIDPTLEQWQTLAQLSVEKGWLPLFDFAYQGFARGLEEDAEGLRAFAAMHKELIVASSYSKNFGLYNERVGACTLVAADSETVDRAFSQMKAAIRANYSNPPAHGASVVATILSNDALRAIWEQELTDMRQRIQRMRQLFVNTLQEKGANRDFSFIIKQNGMFSFSGLTKEQVLRLREEFGVYAVASGRVNVAGMTPDNMAPLCEAIVAVL [T6A]
ddG of mutation (higher = less stable): 1.3 kcal/mol | denaturant midpoint (higher = more stable): 3.62 M and 4.77 M

MFENATAAPADPILGLADLFRADERPGKINLGIGVYKDETGKTPVLTSVKKAEQYLLENETTKNYLGIDGIPEFGRCTQELLFGKGSALINDKRARTAQTPGGTGALRVAADFLAKNTSVKRVWVSNPSWPNHKSVFNSAGLEVREYAYYDAENHTLDFDALINSLNEAQAGDVVLFHGCCHNPTGIDPTLEQWQTLAQLSVEKGWLPLFDFAYQGFARGLEEDAEGLRAFAAMHKELIVASSYSKNFGLYNERVGACTLVAADSETVDRAFSQMKAAIRANYSNPPAHGASVVATILSNDALRAIWEQELTDMRQRIQRMRQLFVNTLQEKGANRDFSFIIKQNGMFSFSGLTKEQVLRLREEFGVYAVASGRVNVAGMTPDNMAPLCEAIVAVL [I5A]
ddG of mutation (higher = less stable): 4.9 kcal/mol and 5.1 kcal/mol | denaturant midpoint (higher = more stable): 2.81 M and 2.74 M and 5.2 M

MFENITAAPADPILGLADLFRADERPGKINLGIGVYKDETGKTPVLTSVKKAEQYLLENETTKNYLGIDGIPEFGRCTQELLFGKGSALINDKRARTAQTPGGTGALRVAADFLAKNTSVKRVWVSNPSWPNHKSVFNSAGLEVREYAYYDAENHTLDFDALINSLNEAQAGDVVLFHGCCHNPTGIDPTLEQWQTLAQLSVEKGWLPLFDFAYQGFARGLEEDAEGLRAFAAMHKELIVASSYSKNFGLYNERVGACTLVAADSETVDRAFSQMKAAIRADYSNPPAHGASVVATILSNDALRAIWEQELTDMRQRIQRMRQLFVNTLQEKGANRDFSFIIKQNGMFSFSGLTKEQVLRLREEFGVYAVASGRVNVAGMTPDNMAPLCEAIVAVL [N282D]
ddG of mutation (higher = less stable): -0.8 kcal/mol | denaturant midpoint (higher = more stable): 4.15 M and 4.9 M and 5.13 M

MFENITAAPADPILGLADLFRADERPGKINLGIGVYKDETGKTPVLTSVKKAEQYLLENETTKNYLGIDGIPEFGRCTQELLFGKGSALINDKRARTAQTPGGTGALRVAADFLAKNTSVKRVWVSNPSWPNHKSVFNSAGLEVREYAYYDAENHTLDFDALINSLNEAQAGDVVLFHGCCHNPTGIDPTLEQWQTLAQLSVEKGWLPLFDFAYQGFARGLEEDAEGLRAFAAMHKELIVASSYSKNFGLYNERVGACTLVAADSETVDRAFSQMKAAIRARYSNPPAHGASVVATILSNDALRAIWEQELTDMRQRIQRMRQLFVNTLQEKGANRDFSFIIKQNGMFSFSGLTKEQVLRLREEFGVYAVASGRVNVAGMTPDNMAPLCEAIVAVL [N282R]
ddG of mutation (higher = less stable): 2.6 kcal/mol | denaturant midpoint (higher = more stable): 3.3 M and 5.17 M

MFENITAAPADPILGLADLFRADERPGKINLGIGVYKDETGKTPVLTSVKKAEQYLLENETTMNYLGIDGIPEFGRCTQELLFGKGSALINDKRARTAQTPGGTGALRVAADFLAKNTSVKRVWVSNPSWPNHKSVFNSAGLEVREYAYYDAENHTLDFDALINSLNEAQAGDVVLFHGCCHNPTGIDPTLEQWQTLAQLSVEKGWLPLFDFAYQGFARGLEEDAEGLRAFAAMHKELIVASSYSKNFGLYNQRVGACTLVAADSETVDRAFSQMKAAIRANYSNPPAHGASVVATILSNDALRAIWEQELTDMRQRIQRMRQLFVNTLQEKGANRDFSFIIKQNGMFSFSGLTKEQVLRLREEFGVYAVASGRVNVAGMTPDNMAPLCEAIVAVL [K63M E253Q]
ddG of mutation (higher = less stable): 5.3 kcal/mol and 4.6 kcal/mol
